Source: patent US20210214440A1 (Janssen / Centocor, published 2021)
Positions count from the first letter of the chain named.

B1: CD8B245 (antibody, human IgG1, kappa, V domains shown)
VH: EFQLQQSGGGLVQPGGSLSLSCAAPGFTFTDYYMSWVRQSPGKALEWLALSRNKGNGYTTEYSASVKGRFTISRDNSQSILYLQMNVLRAEDSATYYCARTVTGTLFYYALDYWGQGTTVTVSS
VL: DIQMTQSPASLSASVGETVTITCRASENIYSYLAWYQQKQGKSPQFLVYNAKTLAAGVPSRFSGSGSGTQFSLKINRLQPEDFGTYYCQHHYGTPLTFGDGTRLEIKR
notes: full-length human IgG1, kappa
B2: CD8B337 (antibody, human IgG1, kappa, V domains shown)
VH: QVTLKESGPGKVQPSQTLSLTCSFSGFSLSTSGMGVSWIRKPSGKGLEWLAHIFWDDDRRYKSSLKSRLTISKDTSSNQVFLMITSVDTADSATYYCARRVGYGDYAYFDVWGAGTTVTVSS
VL: DIQMTQYPASLSVSVGETVTITCRASENIYSDLAWYQQKQGKSPQLLVYAATNLADGVPSRFSGSGSGTQYSLKINSLQSEDFGNYYCQHFWGTPWTFGGGTKLEIKR
notes: full-length human IgG1, kappa
B3: CD8B311 (antibody, human IgG1, kappa, V domains shown)
VH: QVQLKESGPELVKPGASVKLSCKASGYTFTSYWMHWVKQRPGQGLEWIGMIHPNSGSTNYNEKFKSKATLTVDKSSSTAYMQLSSLTSEDSAVYYCARCGYDGAWFAYWGQGTSVTVSS
VL: DIQMTQTTSSLSASLGDRVTISCSASQGISNCLNWYQQKPDGTVKLLIHYTSSLHSGVPSRFSGGGSGTHYSLTISNLEPEDIATYYCQQYSKVPYTFGSGTKLEIKR
notes: full-length human IgG1, kappa
B4: CD8B362 (antibody, human IgG1, kappa, V domains shown)
VH: EVKLVESGAELVKPGASVKLSCTASGFNIKDTYMHWVKQRPEQGLEWIGRIDPANGHTKFDPKFQGKATITADTSSNTAYLQLSSLTSEDTAVYYCAIRFAYWGQGTLVTVSA
VL: DIQMTQSPSSLSASLGDRVSLTCRASHEISGYLSWLQQKPDGTFKRLIYAASTLDSGVPKRFSGSRSGSDYSLSISSLESEDFADYYCLQYSSYPYTFGSGTKLEMKR
notes: full-length human IgG1, kappa
B5: CD8B248 (antibody, human IgG1, kappa, V domains shown)
VH: EVQLQQSGAELARPGASVKMSCKASGYTFTTYTMHWVKQRPGQGLEWIGYINPSSGYTKYNQKFTDKATLTADKSSSTAYMQLSSLTSEDSAVYYCARLWAYWGQGTLVTVSA
VL: DVVMTQTPLSLPVSLGDQASISCRSSQSLVHSSGNTYLHWYLQKPGQSPKLLIYKGSNRFSGVSDRFSGSGSGTDFTLKISRVEAEDLGVYFCSQSTHVPFTFGSGTKLEMKR
notes: full-length human IgG1, kappa
B6: CD8B254 (antibody, human IgG1, kappa, V domains shown)
VH: EVQLQQSGAELVKPGASVKMSCKTSGYTFSSYWITWVKQRPGQGLEWVGDIYPGSGSTNYNEKFKSKAALTVDTSSSTAFMQLNSLTSEDSAVYYCARESITTRITPFDHWGQGTTLTVSS
VL: B5 VL with M111I
notes: full-length human IgG1, kappa
B7: CD8B340 (antibody, human IgG1, kappa, V domains shown)
VH: QVQLQQPGAELVKPGASVRLSCKASGYTFTNYWMQWVQQRPGQGLEWIGEIDPSDTFTNYNQNFKDKATLTVDTSSSTAYLQLSSLTSEDSAVYYCARGDWDRDWYFDVWGTGTLVTVSA
VL: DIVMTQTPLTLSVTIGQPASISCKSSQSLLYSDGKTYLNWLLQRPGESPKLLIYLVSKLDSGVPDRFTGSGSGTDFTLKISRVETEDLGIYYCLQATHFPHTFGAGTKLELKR
notes: full-length human IgG1, kappa
B8: CD8B186 (antibody, human IgG1, kappa, V domains shown)
VH: QVQLQQSGAELAKPGASVKMSCKASGYIFTSYWMHWVKQRPGQGLEWIGNINPSSGYAVYNQKFKDKATLTADQSSSTAYIQLNSLTSEDSAVYYCARRVFYGDSWFAYWGQGTSVTVSS
VL: DVQMIQSPASLSASVGETVTITCRASGNIHNYLAWYQQKQGKSPQLLVYNAKTLADGVPSRFSGSGSGTQYSLKINSLQPEDFGSYYCQHFWSTTWTFGGGTKLEIKR
notes: full-length human IgG1, kappa
B9: CD8B192 (antibody, human IgG1, kappa, V domains shown)
VH: QVQLQQSGPVLVKPGASVKMSCKASGYTFTDYYMNWVMQSHGKSLEWIGVINPYNGGTTYNQRFTGKATLTVDKSSSTAYMELNSLTSEDSAVYYCARNYGAMDSWGQGTSVTVSS
VL: B8 VL with V2I, I5T, Y49S, S63G, S93I, T95P, W96P, G100A, K103R
notes: full-length human IgG1, kappa
B10: CD8B250 (antibody, human IgG1, kappa, V domains shown)
VH: QVQLKESGPGLVAPSQSLSITCTVSGFSLSNYVVHWVRQSPGKGLEWLGVIWTDGSTDYNAAFISRLSISKDNSKSQVFFKMNSLQADDTAIYYCARNNGYFPAFFAYWGQGTLVTVSA
VL: DIVMTQSQKFMSTSVGDRVSVTCKASQNVDTDITWYQQKPGQSPKALIYSASYRYSGVPDRFTGSGSGTDFTLTITNVQSEDLAEYFCQQYNSYPLTFGSGTKLEMKR
notes: full-length human IgG1, kappa
B11: CD8B366 (antibody, human IgG1, kappa, V domains shown)
VH: EVQLQQSGPELVRPGASVKLSCTASGFNIKDDYIHWVKQRPEQGLEWIGRIDPANGNPRYAPKFQDKATLTADTSSNTAYLQLSSLTSEDTAVYYCARDDEGYYYFDVWGAGTSVTVSS
VL: DIKMTQSPSYLAASPGETITINCRASKSISKYLAWYQEKPGKTNKVLIYSGSTLQSGIPSRFSGSGSGTDFTLTISSLEPEDFAIYYCQQHNEYPLTFGDGTRLEIKR
notes: full-length human IgG1, kappa

target: T1, human CD8 on human pan T cells (human, UniProt P01732 22-235; P10966 22-210); assay: flow cytometry, 20 nM mAb on human pan T cells
T1 construct: Native CD8 on the CD4-negative population of human pan T cells
T1 sequence (P01732 22-235, chain 1 of 2): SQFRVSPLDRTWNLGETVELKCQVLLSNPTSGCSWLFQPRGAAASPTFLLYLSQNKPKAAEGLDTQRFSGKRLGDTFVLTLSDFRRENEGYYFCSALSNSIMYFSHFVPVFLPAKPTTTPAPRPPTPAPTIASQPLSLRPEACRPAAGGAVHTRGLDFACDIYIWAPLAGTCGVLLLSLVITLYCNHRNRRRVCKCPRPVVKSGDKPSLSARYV
T1 sequence (P10966 22-210, chain 2 of 2): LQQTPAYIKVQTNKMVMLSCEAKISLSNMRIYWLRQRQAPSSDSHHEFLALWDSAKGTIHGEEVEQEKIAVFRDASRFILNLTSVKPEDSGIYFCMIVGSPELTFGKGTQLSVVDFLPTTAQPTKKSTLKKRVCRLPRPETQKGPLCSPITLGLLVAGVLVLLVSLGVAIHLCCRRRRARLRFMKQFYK
Protocol: Secondary antibodies were A647-conjugated goat anti human IgG Fc antibody at 2 μg/mL, and A488-conjugated mouse anti-human CD4 at 1 μg/mL in staining buffer. Live cells were also gated based on OKT8 control mAb binding. Percent CD8 positive population was calculated by percentage of CD8-positive cell count/live cell count.

| Cell Binding to Human PanT Signal/Background (of CD4 negative population) | Binder |
| --- | --- |
| 44 | B1 |
| 1980 | B2 |
| 1 | B3 |
| 4 | B4 |
| 20 | B5 |
| 23 | B6 |
| 8 | B7 |
| 36 | B8 |
| 22 | B9 |
| 61 | B10 |
| 318 | B11 |
